Measurements: patent publication US6753317
pKi: −log10 of the molar value. Non-standard residues stand in square brackets, D forms with d. *: point of attachment. Dmt = Cc1cc(O)cc(C)c1C[C@H](N)C(=O)O; Tic = O=C(O)[C@@H]1Cc2ccccc2CN1; NHNH2 = NN*

Assays:
[1] = target: µ-opioid receptor (rat brain synaptosomal preparation) (rat) (UniProt P33535); assay: radioligand competition vs [^3H]DAGO, rat brain synaptosomes
[2] = target: δ-opioid receptor (rat brain synaptosomal preparation) (rat) (UniProt P33533); assay: radioligand competition vs [^3H]DPDPE, rat brain synaptosomes
δ-opioid receptor (rat brain synaptosomal preparation) (rat), sequence (P33533 whole entry, stated change not applied): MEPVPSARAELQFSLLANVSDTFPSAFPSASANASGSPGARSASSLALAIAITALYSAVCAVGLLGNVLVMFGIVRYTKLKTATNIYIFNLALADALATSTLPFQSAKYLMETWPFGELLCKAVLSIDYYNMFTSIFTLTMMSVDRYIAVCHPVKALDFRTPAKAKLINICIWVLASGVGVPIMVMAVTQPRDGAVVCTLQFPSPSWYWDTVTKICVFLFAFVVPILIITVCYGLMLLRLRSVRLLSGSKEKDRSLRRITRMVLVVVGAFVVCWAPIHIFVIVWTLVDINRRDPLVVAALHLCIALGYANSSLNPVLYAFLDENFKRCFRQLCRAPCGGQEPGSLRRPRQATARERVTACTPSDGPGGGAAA

[3] = target: δ-opioid receptor (rat brain synaptosomal preparation) (rat) (UniProt P33533); assay: radioligand competition vs [^3H]N,N(CH3)2-Dmt-Tic-OH, rat brain synaptosomes
[4] = target: δ-opioid receptor of the mouse vas deferens (MVD) (mouse) (UniProt P32300); assay: cell-based or functional assay
δ-opioid receptor of the mouse vas deferens (MVD) (mouse), sequence (P32300 whole entry, stated change not applied): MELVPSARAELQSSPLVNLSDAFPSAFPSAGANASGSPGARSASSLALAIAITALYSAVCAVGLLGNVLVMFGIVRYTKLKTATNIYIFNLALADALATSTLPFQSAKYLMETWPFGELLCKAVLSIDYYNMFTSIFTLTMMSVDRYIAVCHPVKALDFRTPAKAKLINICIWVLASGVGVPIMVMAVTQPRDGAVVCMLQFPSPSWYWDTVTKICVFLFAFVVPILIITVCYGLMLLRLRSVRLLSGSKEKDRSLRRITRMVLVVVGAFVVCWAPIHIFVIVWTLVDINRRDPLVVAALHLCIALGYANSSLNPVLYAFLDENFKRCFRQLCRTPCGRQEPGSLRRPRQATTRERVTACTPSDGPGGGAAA

µ-opioid receptor (rat brain synaptosomal preparation) (rat), sequence (P33535 whole entry): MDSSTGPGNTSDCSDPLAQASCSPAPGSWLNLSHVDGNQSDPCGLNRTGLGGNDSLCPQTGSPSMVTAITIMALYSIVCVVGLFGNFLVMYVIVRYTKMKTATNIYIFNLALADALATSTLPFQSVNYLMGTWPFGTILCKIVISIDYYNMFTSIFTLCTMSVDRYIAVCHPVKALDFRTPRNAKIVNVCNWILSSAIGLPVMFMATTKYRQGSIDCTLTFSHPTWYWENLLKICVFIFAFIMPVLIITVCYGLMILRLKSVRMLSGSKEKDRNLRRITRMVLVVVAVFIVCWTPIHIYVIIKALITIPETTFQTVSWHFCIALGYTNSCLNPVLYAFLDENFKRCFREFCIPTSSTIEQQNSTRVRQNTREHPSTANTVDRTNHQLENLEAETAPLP

pKi [1]	pKi [2]	pKi [3]	fold rise of µ affinity relative to N,N(Me)2-Dmt-Tic-OH [1]	MVD pA2 [4]	Substance
5.94	9.34	9.10			H-(R,S)Dmt-Tic-OH (peptide)
9.59	7.61	7.15			H-Dmt-D-Tic-NH-1-adamantane (peptide)
7.33	9.62	9.16			H-Dmt-Tic-Ala-NH2 (peptide)
8.60	10.14	10.40			H-Dmt-Tic-Ala-NH-1-adamantane (peptide)
8.39	10.18	10.10			H-Dmt-Tic-Ala-NH-tBu (peptide)
8.24	10.24	9.92			H-Dmt-Tic-Ala-NHMe (peptide)
6.09	9.54	9.54			H-Dmt-Tic-Ala-OH (peptide)
7.95	9.64	9.85			H-Dmt-Tic-Ala-OMe (peptide)
9.12	9.59	9.00			H-Dmt-Tic-NH-1-adamantane (peptide)
8.22	9.37	9.03			H-Dmt-Tic-NH-tBu (peptide)
7.43	9.15	8.01			H-Dmt-Tic-NH-tetrazole-5-yl (peptide)
6.38	9.07	9.15			H-Dmt-βTic-OH (peptide)
	8.91	8.67			H-[Dmt]-[Tic]-NH2
7.07	9.33	8.91			H-[Dmt]-[Tic]-NHMe
7.07	9.00	7.38			H-[Dmt]-[Tic]-NHNH2
5.48					H-[Dmt]-[Tic]-OH
6.37	8.02	6.30			H-[Dmt]-[Tic]-OMe
5.76	7.95	6.32			H-αDmt-Tic-OH (peptide)
	9.04				N,N(Et)2-DMT-Tic-OH (peptide)
7.30	6.85	6.92			N,N(Me)2-Dmt-D-Tic-NH-1-adamantane (peptide)
8.95	9.80	9.92	2200 fold		N,N(Me)2-Dmt-Tic-NH-1-adamantane (peptide)
6.65	9.21	9.96			N,N(Me)2-Dmt-Tic-NH-tBu (peptide)
6.44	9.27	9.55			N,N(Me)2-Dmt-Tic-NHMe (peptide)
5.61	9.92	10.15			N,N(Me)2-Dmt-Tic-OH (peptide)
5.69	8.93	9.13			[des-NH2-α-piperidine-1-yl]-Dmt-Tic-OH (peptide)
5.25	7.78	8.00			[des-NH2-α-pyrrole-1-yl]-Dmt-Tic-OH (peptide)
6.09	8.79	8.85			[des-NH2-α-pyrrolidine-1-yl]-Dmt-Tic-OH (peptide)
	8.02			5.43	cyclo (DMT-Tic) (peptide)
